Results published in the DeepSol protein solubility set.

Assay: soluble on expression in E. coli; label from the status in PepcDB or PDB records

Soluble on expression in E. coli, not soluble:
MGSDKIHHHHHHMALIIAGERSGVGKTTTTLTLLAALKARQASVQSFKVGPDYIDPMFHRFVTGRDCRNLDPILTDEDYVQHCFQQHSQTADYTLVEGVMGLFDGLTGKTDTASTAHIARILNLPILLVLNCSSTARSIAAIAYGYQNFDSRLKIAGLVLNRVGSDRHLELLKDALEPLEIPILGVLRRQDEIQIPDRHLGLIPTSELPHLQSVIDRLAVLGQQCFDWNRLEPLLSNSDLNSTAFKSTTPSISLKSSVPIAIARDRAFNFYYADNFDLLRAAGAELIEWSPLQDRQLPAGVQGLYLGGGFPEVFAAELSDNLLARQAVQTAITQGIPCYAECGGLMYLCQHIIDFEQTQYPMVGAIAATAQMGSRLTLGYREATAQQASPLLQKGQVVWGHEFHRSSLREPIAQPLFQLQNFDGSLHYGEGYSQPNLHASYLHLHFGGKPWLIQNFLQACQQATALSR
MGSDKIHHHHHHMALLEVTDLSQSFADRKLYDDANFTLERADHMGIVGQNGAGKSTLIKILTGQILPLSGQIKWQRNVRTGYLDQYADIPAGMTLYAFLKTAFQRLYDLDAQMQQLYADYAEKMDDQLLERAGRIQETLEANNFYDVETEMERVITGLGLDEIGRDHVISEMSGGQRSKIILAKLLLENPDVIILDEPTNYLDTAHISWLEDYLNGFEGAVMVISHDYDFLQQVTNCICDVAFGKIIKYRGDFKAAMRQKEARKEAQLKAFEKQQVVIEKAEKFIRKNKAGSKSTMAKSREKMLSHLDRVDPPSENEHAKFAFPYLDTGSQNALSVTKLSVGYGKPLLEPVTFTMTNGEKLAFKGFNGVGKSTLIKSILGVIPALSGKSDFSPSAKINYFNQDLEWDNPQLTPLQTIQNEYPTMLPKTIRTKLAKCGINAANAMKPMHLLSGGEQTKVKLALLELVPSNFLIMDEPTNHLDDETKEGLKRALQAFQGNLILVSHESSFVNGWVDKELNVEKLSLKERQG
MGSDKIHHHHHHMALVALPGGGAVDPAFWSVQAAEDFEQEIVDQYALAMAAAGLSDSHIRNTRSTIIEFARSVTGPLWAATCQDADRFLAEQRRLGRSVSTRAGKAGTLALFYEFMISRYQGRIHRLTGVLVEQPIDEFNRQAGASLGKVRVPPSDAEIDAFFTCWRHSIPQARKYLPAARDYFAASLWRRLGLRITETVMLDIRDWRPDLGGFGKLHVRYGKGAHGRGPKPRLVPAINGAAELIDWWLGDVRHRYGEDWADPDAPLLPSERFDRELGRCGRVGGNALRRSLGLQVDQWLPAWSGRMTPHVLRHYCASSLYGAGMDIKALQELLGHQWLSTTSGYIHVRSEHVEQAWKNANERVESRFATTQKEG
MGSDKIHHHHHHMANLLTINHLSYSRNLQLILKDLNLELPYGQIVGLLGTNGAGKTTLMRLIAGNYIDRKNSISINTETNSAVRKSLVSFTEQVGGWSGHPRIFKIGNFYDALYEDFNLTTFNQLLSNLNLSPDQRVNQLSKGNFRKLVIAVTLARQTDLYLLDEPFDGIDSMTRKKIISSIIQWKPENATVLVSDHHVGDIANLLDQVVIIKDQHVAAQEAADTIRETLGKDIETYYEDFYREEL
MGSDKIHHHHHHMAPDTSMSSRDALPPLACLRAFEAAARHASFTQAGSELHLTQSAVSRQIKRLEDDLGRPLFERHYEGLRLTPAGERYFGVVQRLLRDLRDETARLRRRGDDRQLTLASSPTIASIWLARQLPDFQRAHPHIEIRILTVEDPHRLDLAEFDLGIYYHVPHEVDPPGLDAEAIFSHEEVAAVCSPAYLARHGDIRDADDLLARHTLMVVEDHYHDWLTWEGWYQAQNLAWRTPEHSLRANSFQLLMNAILAGQGVTLGWTRLLAADLAQHNLVQALPHTLPSRGRLSLLTPQHRHLTEPMRAFRAWVLGPA
MGSDKIHHHHHHMAQRSILVGQIWHEGHSFNPILTREKDFLFLRGEAVLEEARASSTALSGIVKTAEALGYRCVPSISARARPGGAIEQKVFDNIVDEFVQAARMQDFDAICLDLHGATLAEHTLDTEGYLLSRLREVVGNDIMISLALDLHAYLTPQMVEQATIITSFRTTPHADIEETGVRAMTLLDSLSNETRPPRAIYSLIPFLTRGNDETWSGPLAEIGAAADRWRARSDVVDLSIFNVHPFLDVPGYGQVVLAYDNGSGAAIDACRDLSDMLWKARDEFQEQLMSVDKALEIARTSRQLLALGDQGDRVMGAGPGDSPEIARVALEHFPGLKVAVPVYDPQAVRTAREAGENATVRMAVGGAFTHSVAPLERDWTVRKLCRARFTNIGPYMAGTEADFGDAAVLTCDAVTVIVTTMAPNVHDPAFYEAVGVPLASQQAVVARAANHYKLSFADIARTITVDTPGLTAFKPHQFPFTQARPFYPLDIVQWSFAPLECNKVG
MGSDKIHHHHHHMAQRVGPTRRGVDGTPVEPLSIKHPNAAGIDIGGASHYVAVPPDRVGKGEPAVREFGPHTEDLVAVANWLCACRIDTVALESTGVYWIALYELLQARGFEVWLVDAKSVRHVKARKSDVLDCQWLQQLHSFGLLSQAHRPDEQVCALREMSRLRDITIDERARHTQRMQKALTQMNVQLTNVITDITGETGMNIIRAIVAGGATAWPSRS
MGSDKIHHHHHHMARARTQYKCRSCGYISASYLGRCPNCGAWNQFEKESQEVRQTSTKATPSRLMASVGAKEAVKMSTVKAEKEERVLTKSSELNRVLGGGIVPGSLVLIGGDPGIGKSTLMLQIMSELAEKYKVLYVSGEESASQIKLRADRLGLGQSPMLLYPESNMEHIRDQIDDVKPDFVVIDSIQTMNEPSLDSMVGSASQVREVTAELMKIAKLDQVTVFVIGHVTKEGSIAGPKILEHMVDTVLYFEGDEHHAYRILHSVKNRFGAANEIGMFEMKTEGLAEVTNPSAVFLDERLPDSTGSAVVVSLEGTRPIL
MGSDKIHHHHHHMARIPRFALVERDSSNHCTWRAHDFEHVLEEAGATDKFLELLGRYKEKYGVEINSYCLMGTHPHVTCTTRRDQEQFSRFWQVVNGQFARWYNKRRERRGQVVMERMRSPRIQAEGAHQLTVMRYGDLNPVRAGLVKSPKDWKWSSYRHYAFGEPDPLIDDAPEYLALGKTGPQRRKAYQALFALPLSESLRTRRIDLVEYPFVGDAHWVMHRLDVAGLSPPD
MGSDKIHHHHHHMARNAKLDRLLTLVKALGESAEGLTLDEMAEVIGANRRTAERLRDLILVHFDLEEGVDDRHKRFRIPGTLPSPFIQPNVAEIAALKSLADTAHKAGSAQAPLLESLVGKVQAGLRREVKSRMAPDLEPLVRLQRHHVPAGPMIEHAPETVAQVQGAMMAGMCLEFDYLADGAAEPKWRRVIPVGLIHGPATYLIGKIPGRDLEPAPYRLDRIIAARVSNQPGAAGEDWDLDQWMSASFGIWREEGYEIVLRVAHESAERARKWRFHPQQMIEQDGEELIVRFHSGGLREIAEHLFTWGGEVRIEGPEELREMMRERLSAAGRAVV
MGSDKIHHHHHHMATENPPIYMVGGSKGGVGKSFVTLALVDYLRRMEVNVVLVETDTSNPDVMKAVHDEIECGSCDLDDVSGWIDFVNFCDLHPDATVVVNTAARSQAGVAQYGGTLASTLDELARRLVVLWVINRQRDSLELLLRFGATFPNAITHVVRNGYFGSPDKFTLYRDSQLRNAVEAQGQSLDFPDLADRVADELRSQRLSVSKAAEMMHMGERAELLRWRAVCGTMFARVTPHA
MGSDKIHHHHHHMATYNYPEFGAGLWHFANYIDRYAVDGYGPALSTIDQINAAKEVGELSYVDLPYPFTPGVTLSEVKDALKDAGLKAIGITPEIYLQKWSRGAFTNPDPAARAAAFELMHESAGIVRELGANYVKVWPGQDGWDYPFQVSHKNLWKLAVDGMRDLAGANPDVKFAIEYKPREPRVKMTWDSAARTLLGIEDIGLDNVGVLLDFGHALYGGESPADSAQLIIDRGRLFGMDVNDNLRGWDDDLVVGTVHMTEIFEFFYVLKINNWQGVWQLDQFPFRENHVEAAQLSIRFLKHIYRALDKLDIPALQAAQEAQNPLQAQRIVQDALLSSITVSE
MGSDKIHHHHHHMAVKTIRTLAHFITACSEIKVKDDHTLFYRGHASDIYTPFPTIFRNQNDDPKKSRYIESEGELFHNLVTQCPEEFKDCTSTFDFLVKMQHYGLPTRLLDITSNPLVALYFACCTLIPESTKDKNAKNGQVLVYQVPNEEIKYYNSDTVSVISNLARVNTSFNFTDEEDRERFLHSIQAEKPYFKPYIKEAHLHSVICVKPKLDNRRIVKQSGAFFLFGMGKNKTDSIRISDKYRPDIKHIDIPKSSKETLLRELATLSISEATLFPEIDNVARFLKKEVKIKSLVVEEIEEEKLGNEISVAYQEFILNSLVLNTDLLEQIQHNSADRAMLGLYPELLQKAIIESQENYNEIALKLLVEEDSADKFAKNIFSKLKHKLEELS
MGSDKIHHHHHHMAVRQDTIWERFLSPVMRLLIDEEGLRRYADSIDWEKEGDRFRRDDVIIPSYYSSQNFHGITGGYLTYNAAVSYDPITQYVVPPNETIVRQALIDAVKVKPRRILDLGCGTGSTTLMLKRAFPEAEVIGLDLSPYMLVRAEDKARNSGLEIVWRHGNAEKTSFRDATFDLVTASLLFHETPNEVSLAILQESFRLLVTGGQVLILDGNQKTLRQLEWLNDVFEEPYIREYAAGSIEANMGAAGFEAVRSQDVWWINQVTGGVKPIATENVRRYTPTSVDNNDLEGLGSPAFGIIA
MGSDKIHHHHHHMAVSLWQQCIGRLQDELSAQQFSMWIRPLQAEMEGDTLVLYAPNRFVLDWVRDKYINSINQFFTEQLGDNAPKLRFDIGSRPSAKPQAPAPAAVKAAAPQPKPGNSFVSQPEPAVSNHRSNINPTYQFDNFVEGKSNQLGKAAALQVAENPGGAYNPLFLYGGTGLGKTHLLHAVGNGIIKNNPNAKVVYMHSERFVQDMVKALQNNAIEEFKRYYRSVDALFIDDIQFFANKDRSQEEFFHTFNALLEGNHQIILTSDRYPKEIDGVEDRLKSRFGWGLTVAIEPPELETRVAILMRKAQESGINLPDEVAFFIAKRLRSNVRELEGALNRVIANANFTGRPITIDFVREALRDLLALQEKLVTIDNIQKTVAEYYKIKMADMLSKRRSRSVARPRQMAMALSKELTNQSLPEIGDAFGGRDHTTVLHACRKIAQLREESHDIKEDYANLIRTLSS
MGSDKIHHHHHHMAYPNGKLSEEKVFKDPVHRYVHVRDKLIWDLIGTREFQRLRRIKQLGTTYLTFHGAEHSRFNHSLGVYEIVRRMVDDVFKGRPEWDDSERELCLAAALLHDLGHGPFSHSFEKVFHLDHEDFTRGIILGDTEVNQVLRKVSPGFPQDVAEVIAKTYKNKQVVSLISSQIDADRMDYLQRDAYYTGVSYGHFDMERILRVMRPREDQIVIKESGMHAVEDYIMSRYQMYWQVYFHPVTRSAEVILTKILHRAKQLHDEGYVFTHAPVHFYSIFEGKLTLEDYVKLDESIILYYFQAWEDEEDAILSDLCRRFINRQLFQYVEFNPNEEMSAYFELTSLFKEAGIDPSYYLVVDSSSDLPYDFYRPGEEEERLPIHLLTQNGQIKELSRQSAIVESISGKRRTDHKLYYPKDLICDGTKHPEAKMKIRQLLGLT
MGSDKIHHHHHHMCTRFVYNGKETIVGFNFDIDLSEWEHTVIAEKDRFFIGIKMSDNKYHSFHGINRNGNVGTLLYVHGNDNAQFCSNESCYTIADLTENFIKGNLSFDDSLEIVKKKKITYAPDTTMQAMFSDRNGRVLIIEPGIGYRLEKEKYSLITNYSILKPELTNPYVLSGDNRYEKAKDLLQGYGENFSISNAFDVLRSVRQEGLWATRVSFIYSVAKNKVYYVLNNDFKNIAEYQF
MGSDKIHHHHHHMDAIDLKRLSDFVRHRQNEDGGFAFCKPLPSTLAETFYAVSILTSIGEDVPRREKVVEFLKSRIQTEINSLFYTLHSLNLLGEDLPDYSSFLLKRLEGLKAERKYLLSDGGVTATYTFLQPNALRDAYMISTLLHLYNRDVPEETKMLVRRYRRETEFGVGYGVKKPNLEETFYASYILRDKAVISFVKSFESNGGFAKQPGGYPPYLEDTYYATSTLSLLSQRYSNPRTAEFIASLQNANGGFRRSIHGGISTLEDSYYAVEVLRRLEFR
